Assay results: the nanobody polyreactivity screen of Harvey et al. (2022)

Assay: yeast display, Sf9 membrane polyspecificity reagent, FACS + sequencing; frameworks hold sequencing errors
Method in brief: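 After 36–48 hours of galactose induction, yeast (Saccharomyces cerevisiae BJ5465) displaying a synthetic nanobody library were stained at 4 °C for 1 hour with 10% biotinylated, detergent-solubilized Sf9 membrane reagent. Streptavidin microbeads enriched the stained cells before FACS sorting into low and high (top ~1%) gates on anti-HA and streptavidin fluorescence. Each clone's polyreactivity label reflects its gate of origin.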

Sequence	polyreactivity (PSR sort gate)
QVQLVESGGGLVQAGGSLRLSCAASGITFNDNAMGWYRQAPGKERELVAAINSGTGTYYADSVKGRFTISRDNAKNTVYLQMNSLKPEDTAVYYCAADSRPYLRDYWGQGTQVTVSS	low polyreactivity
QVQLVESGGGLVQAGGSLRLSCAASGRIFNSNTMGWYRQAPGKERELVAAITYSGGSTYYADSVKGRFTISRDNAKNTVYLQMNSLNPEDTAVYYCAADFWEYDGPWYANDYDSWGQGTQVTVSS	low polyreactivity
QVQLVESGGGLVQAGGSLRLSCAASGSIFGRNAMGWYRQAPGKEREFVATITSRGGRTYYADSVKGRFTISRDNAKNTVYLQMNSLKPEDTAVYYCAADTYISTLKKYRLGDYWGQGTQVTVSS	low polyreactivity
QVQLVESGGGLVQAGGSLRLSSAASGRTFVNYTMGWYRQAPGIERELVAAITSSGGSTYYADSVKGRFTISRDNAKNTVYLQMNSLKPEDTAVYYCAAAKFDLSFWLYYWGQGTQVTVSS	low polyreactivity
QVQLVESGGGLVQAGGSLRLSCAASGSTFRYNAMGWYRQARGKERELVGGITSSGGTYAHSVKGRFTISRDNAKNTVYLQMNSLKPEDTAVYYCNALGVQDEFDYWGQGTQVTVSS	low polyreactivity
QVQLVESGGGLVQAGGSLRLSCAASGSTLFAYAMGWYRQAPGTERELVAAITSGASTNYADSVKGRFTISRDNAKNTVYLQMNSLKPEDTAVYYCAKDVSGTNPDYDYWGQGTQVTVSS	low polyreactivity
QVQLVESGGGLVQAGGSLRLSCAASGSTFRINAMGWYRQAPGNERELVAAMSYNGGGTYADSVKGRFTISRDNAKNTVYLQMNSLKPEDTAVSYCAADTYYGQAYTAYTYRLYDYWGEGTQVTVSS	low polyreactivity
EEELVESGGGLVQAGGSLRLSCAASGSTFLVYAMGWYRQAPGKERELVAVITYSTVRTYYADSVKGRFTISRDNAKNTVYLQMNSLKPEDTAVYYCNADKEYAVLGQGMDYWGQGTQVSVSS	low polyreactivity
QVQLVESGGGLVQAGGSLRLSCAASGITFVRYAMGGYRQAPGKESELVAGISRGGSTNYADSVKGRFTISRDNAKNTVYLQMNSLKPEDSAVYYCNALYARRVYVGYDYWGQGTQVTVSS	high polyreactivity
QVQLVESGGGLVQAGGSLRLSCAASGSTFGLYAMGWYRQAPGKERELVAAISYNTGRTYYADSVKGRFTISRDNAKNTVYLQMNSLKPEDTAVYYCAAEYFIWSYTRYEYWGQGTQVTVSS	high polyreactivity
QVQLVESGGGLFQAGGSLRLSCAASGRTFRSYAMGWYRQAPGKERELVAAISTGGSTYYADSVKGRFTISRDNAKNTVYLQMNSLKPEDTAVYYCAAEFNAYTPAGLWYTYYYWGQGTQVTVSS	high polyreactivity
QVQLVESGGGLVQAGGSLRLSCAASGFIFAWSAMGWYRQAPGKERELVAAISYSGGSTFYADSVKGRFTISRDNAKNTVYLQMNSLKPEDTAVYYCARYYRALGTARNDYWGQGTQVTVSS	low polyreactivity
QVQLVESGGGLVQAGGSLRLSCAASGRTIPYKSMGWYRQAPGKERELVAAITSGGTTNYADSVKGRFTISRDNAKNTVYLQMNSLKPVDTAVYYCAADSDASSQFRRDYWGQGTQVNVSS	low polyreactivity
QVQLQESGGGLVQAGGSLRLSCAASGSNSILQSMGWYRQAPGKERELVAGINWGATTYYADSVKGRLTTSRDYAKNSVYLQMNSLKPEDTAVYFCAVPTYYTYPLLYWGQGTQVTVSS	low polyreactivity
QDQLVESGGGLVQAGASLRLSCPASGFLFESNAMGWYRQAPGKERELVAAITKRGGSTYYADSVKGRFTISRDNAKNTVYLQMKSLKPEDTAVYYCARYSSRYSSGYDYWGQGTQVTVSS	high polyreactivity
QVQLVESAAGLVQAGASLRLSCAPSGRIYRYYAMGWYRQAPGKDRELVAAISSSGGSTYYADSVKGRFSISRDNAKNTVYLQKNSLKPEDTAVYYCAARKASGRFGYWGQGTQVTVSS	high polyreactivity
QVQLQESGDGLVQAGGSLRLSSGASGTIVSDYGMGGYRQAPGKERELLAGISDGCNTNYTDSVKGRFTISRDNAHRVSADEQPETGGYLGVLLRGTERWLHFYVYWGQGTQVTVSS	high polyreactivity
QVQLVESGGGIVQAGGSLRLSCAASGSIFKYYAMARYRQAPGKERELVASMSRVGSTNYADSVKGRFTISRDTAKNTVYLQMNSLKPEDTAVYYCNKRWLYYNLDYWGQGTQVTVSS	high polyreactivity
QVQLVESGGGLVQAGGSLRLSCAASGSTLYAYAVGWYRQAPGKERELVAAIRTGGSTYYADSVKGRFTISRDNAKNTVYLQMNRLIPEDTAVYYCAADHGYQYGYWGQGTQVTVSS	low polyreactivity
QVQLVESGGGLVQAGGSLRLSCAASGFIFSHYAMGWYRQAPGKERELVAAISWSGDSTYYADSVKGRFTLSRDNAKNTVDLQMNSLKPEDTAVYYCNAVYFWVRYLKFLEFGYWGQGTQVTVSS	high polyreactivity
QVQLVESGGGLVQAGGSLRLSCSASGSTFPSNAMGWYRQAPGKERELVAAIRGRGGSTYYADSVKGRFTISRDNAKNTVYLQMNSLKPEDTAVYYCAKKVRSYVRWEYDYWGQGTQVTVSS	low polyreactivity
QVQLVESGGGLVQAGGSLRLSCAASGFTFGTYDMGWYRQAPGKERELVAAISTSGGSTYYADSVKGRFTISRDNAKNTVYLQMNSLKPEDTAVYYCAARIVYYGGYGYWGQGTQVTVSS	high polyreactivity

Sequence	polyreactivity (PSR sort gate)
QVQLVESGGGLVQAGGSLRLSCAASGSTLRGYAMGWYRQAPGKERELVAAITYISDSTYYADSVKGRFTISRDNAKNTVYLQMNSLKPEDTAVYYCNAYYDGDWRYTSQETGDHWGQGTQVTVSS	low polyreactivity
QVQLVESGGGLVQAGGSLRLSCAASGRIFSIYAMGWYRQAPGKERDMVAASSFRGTSTYADSVKGRFTISRDNAKNTVYLQMNWLKPEDTAVYYCAVTGFDVLWPSLGGELDYWGQGTQVTVSS	low polyreactivity
QVQHVESVGGLVQAGGSLRLSCAASGRTFGAYDMGWYRQAPGKERELVAAITRSGGSTYYADSVKGRFTISRDNAKNTVYLQMNSLKPEDTAVYYCAARDQVYNYRFGSRGGVYYWGQGTQVTVSS	high polyreactivity
QVQHVESGGGLVQAGVSLRLSCAASGSIFVYYAMGWYRQAPGKERELVASISESDGSTSYADSVKGRFTISRDNAMNTVYLQMNSLKPEDTAVSYCAADPYFYWYSPSFDYWGQGTQVTVSS	low polyreactivity
QVQLVESGGGLVQAGGSLRLSCAASGRTFWYYAMGWYRQSPGKERELVAVITSGSSTYYADSVKGRFTISRDNAKNTVYLQMNSLKPEDTAVYYCAVGRTYRRYSAASYNYWGQGTQVTVSS	high polyreactivity
QVQLVESSGGLVQAGGSLRLSCADSGIIFQNYEMGWYRQAPGKDRELVAAITGSGGSTYYADSVKGRFTISRDNAKNTVYLQMNSLKPEDTAVDYCNADWEYYGKSDYWGQGTQVTVAS	low polyreactivity
KVQLVESGGGLVQAGGSLRLSCAASGRIFYYNAMGWYRQAPGKERELVAVITGGGSTNYADSVKGRFTISRDNAKNTVYLQMNSLKPEDTAGYYCAARRAWGTKYHGYDYWGQGTQVNVSS	low polyreactivity
QVLLQESGGCLVQAGGSMRLSCAASGYISSWYPMGWYRQAPGKEREFVATIAPGATTYYADSVKGRFTISRDYAKTTVYLQMNSLKPEDTAVSYCAAGPENNDFYSYWGQGTQVTVSR	low polyreactivity
QVQLVESGGGLVQAGGSLRLSCAASGFIFITYDMGWYIQAPGKERELVAVITSGGTTNYADSVKGRFTIARDNAKNTVYLQMNSLKPEDTAVYYCNRDSVLDPGNPNPYGFDYWGQGTQVTVSS	low polyreactivity
QVHLVESGGGLIQAGGSLRISSAPSGSTFGTYVMGWSRQAPGKERELVAAISKRGGRTYYADSVKGRFTISRDNAKNTVYVPMTSLKAEDTAVYYCYAVYLYSGSSARYYWGQGTEVTVSS	high polyreactivity
QVQLVESGGGLVQAGGSLRLSCAACGSIFVRNTMGWDRQAPGKERELVASIDWSGGITSYADSVKGRFTISRDNAKNTVYLQMNIRKPEDTAVYFCNAVFLYPFNVPTMEYWGQGTQVTVSS	low polyreactivity
QVQLVESGGGLVQAGGSLRLSCAASGITFSRNGMGWYRQAPGKERELVAAISTSGDSTDYADSVKGRFTISRDNAKNTVYLQMNSLKPEDTAVYYCATEWSYYNYGYDYWGQGTQVTVSS	low polyreactivity
QVQLVESGGGLVQAGGSLRLSCAASGSTRYWYAMGWYRQAPGKEREFFAGISIGGRTNYADSVKGRFTISRDNAKNTVYLQMNSLKPEDTAVYYCNAENTYVGSRYRPYNYWGQGTLVTVSS	low polyreactivity
QVQLVESGGGLVQAGGSLRLSCAASGFTFGANDMGRYIQAPGKERELVATISSSGGTTYYADSVKGRFTISRDNAKYTVYLQMNSLKPEDTAVYYCAAKGLFTGRVSRYADDHWGQGTEVTVSS	low polyreactivity
QVQLEESGGGLVQAGGSLRLSCAASGFTFVDYLMGWYRQAPGKERELVAAITRSGGSTYYADSVKGRFTISRDQAKNTVYLEMNSLKPEDTAVYYCAAEIRDYAKSYSFYWGQGTQVTVSS	high polyreactivity
QVQIVDSGVGLVQAGGSLRLSCAASGSIFKYNAKGWYREAPGKVRELVAAIRWSGVGTRYADSVKGRFTISRVNAKNTVYLQMNSLKPEDTAVYSCAARYGRHRVSCYATWRYGYWGQGTQVTVSS	low polyreactivity
QVQLEESGGGLVQAGGSLRLSCAASGFTFRRYAMGWYRQAPGKERELVAVITTAGYTNYADSVKGRFTISRDNAKNSVYLQMNSLKPEDTAVYYCATDNGTRKRRYDYWGQGTQVTVSS	low polyreactivity
QVQLVESGGGLVQAGGSLRLSCAASGRTLWRYAMGWYRQAPGKERELVASIRSGGSTYYADSVKGRFTISRDNAKNTVYLQMNSLKPEDTAVYYCAARYYWGAEAGYYYWGQGTQVTVSS	high polyreactivity
QVQLVESGGGLVQAGGSLRLSCAASGLTFYRNAMGWYTQAPGKERELVATISSSGGSTYYADSVKGRFTISRDNEKNTVYLQMNSLKPEDTAVYYCNARYYSYGPGKTVRYRTGYYGYWGQGTQVTVSS	high polyreactivity
QVQLVESGGGLVQAGGSLRLSCAASGLTFLYNAMGWYRRATGKERELVASITNGGSTNYADSVKGRFTISRDNEKNTVYLQMNSLKPEDTAVYYCAKAAVDVGQRTPWEYDYWGQGTQVTVSS	low polyreactivity
EVQLVESGGGLVQPGGSLRLSCEASGYIYSRYRMGWYRQAPGKAREFVAAISGGSSTNYADSVKGRFTISRDNSKNTVYLQMNSLRAEDTAVYYCAAYKIDSDPRVYWGQGTQVTVSS	low polyreactivity
